According to patent publication US8309097 (VERENIGING VOOR CHRISTELIJK WETENSCHAPPELIJK ONDERWIJS, dated 2012):
Substitutions are numbered along the chain they refer to. Names may count otherwise. Where two headings read alike, the source gives them in different places.

Legend:
ICAM-3 from granulocytes = molecular target: T1, ICAM-3 from granulocytes (UniProt P32942 30-547); experiment: ELISA: ICAM-3 captured from granulocyte lysate by coated antibody, DC-SIGN-Fc added (FIG. 22C)
T1 construct: also called ICAM-3 captured or immunoprecipitated from granulocyte lysate
T1 sequence (looked up): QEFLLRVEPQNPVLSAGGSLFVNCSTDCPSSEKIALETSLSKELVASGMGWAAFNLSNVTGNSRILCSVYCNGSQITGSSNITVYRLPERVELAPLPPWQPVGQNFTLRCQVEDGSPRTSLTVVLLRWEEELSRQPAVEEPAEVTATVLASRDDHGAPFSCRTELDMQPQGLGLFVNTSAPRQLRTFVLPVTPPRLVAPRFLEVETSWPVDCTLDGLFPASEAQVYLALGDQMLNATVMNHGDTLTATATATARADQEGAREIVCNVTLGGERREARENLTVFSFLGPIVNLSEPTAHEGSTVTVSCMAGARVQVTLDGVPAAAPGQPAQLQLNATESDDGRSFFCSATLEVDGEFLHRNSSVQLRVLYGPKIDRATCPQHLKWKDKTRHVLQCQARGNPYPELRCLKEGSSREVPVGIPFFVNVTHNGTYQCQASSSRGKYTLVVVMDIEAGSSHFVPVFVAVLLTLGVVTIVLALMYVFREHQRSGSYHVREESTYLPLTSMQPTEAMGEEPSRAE

[1] = molecular target: T2, ICAM-3 coated on fluorescent beads (UniProt P32942 30-485)
T2 sequence: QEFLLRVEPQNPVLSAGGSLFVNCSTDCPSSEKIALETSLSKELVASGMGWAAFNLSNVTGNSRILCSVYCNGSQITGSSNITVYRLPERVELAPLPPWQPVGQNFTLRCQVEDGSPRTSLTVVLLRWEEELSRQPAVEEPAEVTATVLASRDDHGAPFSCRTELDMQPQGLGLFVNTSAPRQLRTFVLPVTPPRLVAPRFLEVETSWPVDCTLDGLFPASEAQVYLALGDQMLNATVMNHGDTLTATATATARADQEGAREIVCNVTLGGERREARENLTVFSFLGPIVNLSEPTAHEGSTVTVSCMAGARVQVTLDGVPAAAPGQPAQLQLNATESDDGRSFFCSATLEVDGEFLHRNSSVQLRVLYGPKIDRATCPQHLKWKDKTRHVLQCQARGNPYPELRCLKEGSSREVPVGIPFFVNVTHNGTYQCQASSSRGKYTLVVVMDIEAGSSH

ICAM-3-Fc = molecular target: T3, ICAM-3-Fc (UniProt P32942 30-485); experiment: beads coated with ICAM-3-Fc, immature DC and K562-DC-SIGN
T3 construct: also called pIG-ICAM-3-Fc product; Fc chimera of ICAM-3
T3 sequence (looked up): T2 sequence

[2] = molecular target: T2, ICAM-3 coated on fluorescent beads; experiment: fluorescent bead adhesion assay, K562 transfectants

B1: DC-SIGN-Fc (Fc fusion, human, UniProt Q9NNX6 64-404, looked up, not shown: a dimerising Fc or GST)
chain: PSSISQEQSRQDAIYQNLTQLKAAVGELSEKSKLQEIYQELTQLKAAVGELPEKSKLQEIYQELTRLKAAVGELPEKSKLQEIYQELTWLKAAVGELPEKSKMQEIYQELTRLKAAVGELPEKSKQQEIYQELTRLKAAVGELPEKSKQQEIYQELTRLKAAVGELPEKSKQQEIYQELTQLKAAVERLCHPCPWEWTFFQGNCYFMSNSQRNWHDSITACKEVGAQLVVIKSAEEQNFLQLQSSRSNRFTWMGLSDLNQEGTWQWVDGSPLLPSFKQYWNRGEPNNVGEEDCAEFSGNGWNDDKCNLAKFWICKKSAASCSRDEEQFLSPAPATPNPPPA
notes: range 64-404; also called soluble DC-SIGN-Fc; DC-SIGN-Fe
**Q.** Does B1 bind (ICAM-3 from granulocytes)?
**A.** no binding

B2: DC-SIGN (CD209), wild type, expressed on K562 transfectants or immature dendritic cells (receptor, human, UniProt Q9NNX6 1-404, looked up)
chain: MSDSKEPRLQQLGLLEEEQLRGLGFRQTRGYKSLAGCLGHGPLVLQLLSFTLLAGLLVQVSKVPSSISQEQSRQDAIYQNLTQLKAAVGELSEKSKLQEIYQELTQLKAAVGELPEKSKLQEIYQELTRLKAAVGELPEKSKLQEIYQELTWLKAAVGELPEKSKMQEIYQELTRLKAAVGELPEKSKQQEIYQELTRLKAAVGELPEKSKQQEIYQELTRLKAAVGELPEKSKQQEIYQELTQLKAAVERLCHPCPWEWTFFQGNCYFMSNSQRNWHDSITACKEVGAQLVVIKSAEEQNFLQLQSSRSNRFTWMGLSDLNQEGTWQWVDGSPLLPSFKQYWNRGEPNNVGEEDCAEFSGNGWNDDKCNLAKFWICKKSAASCSRDEEQFLSPAPATPNPPPA
notes: whole, on cells; also called cellular DC-SIGN; K562-DC-SIGN
**Q.** Does B2 bind [1]?
**A.** binds

**Q.** Does B2 bind (ICAM-3-Fc)?
**A.** binds

B3: DC-SIGN E347Q mutant expressed by K562 cells (receptor)
chain: B2 chain with E347Q
notes: whole, on cells
**Q.** Does B3 bind [2]?
**A.** no binding
